Measurements published in the supplement of paper PMC10567573.

B1: C10orf62 (parent)
chain: TSECPSDKDKSPESHKAKNESWIK
B2: TRIM43 (parent)
chain: FCDMDKSLLCLLCSNSQEHGAHKH

Variants of: B1
Assay: protein stability index of a GFP-peptide fusion (GPS, HEK-293T) (PSI 1-6); higher = more stable
Details: c terminus: a fixed tail appended
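Further: lentivirally expressed fusions sorted by FACS into six bins by GFP to DsRed ratio, PSI derived from sequencing read proportions per bin multiplied by bin number.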

Compared with TSECPSDKDKSFESHKAKNESWIK [P12F], TSECPSDKDKSKESHKAKNESWIK [P12K] is higher in protein stability index: 2.44 for the first, 2.86 for the second.

First: TSECPSDKDKSWESHKAKNESWIK [P12W]
Second: TSECPSDKDKSDESHKAKNESWIK [P12D]
The protein stability index of the first is lower: 2.37 for the first, 3.83 for the second.

Compared with TSECPSDKDKSMESHKAKNESWIK [P12M], TSECPSDKDKSRESHKAKNESWIK [P12R] is lower in protein stability index: 3.19 for the first, 1.66 for the second.

Compared with TSECPSDKDKSCESHKAKNESWIK [P12C], TSECPSDKQKSPESHKAKNESWIK [D9Q] is lower in protein stability index: 3.62 for the first, 3.27 for the second.

Compared with TSECPSDKKKSPESHKAKNESWIK [D9K], TSECPSDKTKSPESHKAKNESWIK [D9T] is higher in protein stability index: 2.25 for the first, 3.34 for the second.

Compared with TSECPSDKLKSPESHKAKNESWIK [D9L], TSECPSDKWKSPESHKAKNESWIK [D9W] is higher in protein stability index: 2.54 for the first, 2.98 for the second.

Going from TSECPSDKPKSPESHKAKNESWIK [D9P] to TSECPSDKEKSPESHKAKNESWIK [D9E], the protein stability index falls from 3.39 to 3.

First: TSECPSDKRKSPESHKAKNESWIK [D9R]
Second: TSECPSDKVKSPESHKAKNESWIK [D9V]
The protein stability index of the first is lower: 2.62 for the first, 2.9 for the second.

Compared with TSECPSDKSKSPESHKAKNESWIK [D9S], TSECPSLKDKSPESHKAKNESWIK [D7L] is lower in protein stability index: 3.11 for the first, 2.81 for the second.

Going from TSECPSVKDKSPESHKAKNESWIK [D7V] to TSECPSAKDKSPESHKAKNESWIK [D7A], the protein stability index falls from 3.52 to 2.6.

Going from TSECPSIKDKSPESHKAKNESWIK [D7I] to TSECPSHKDKSPESHKAKNESWIK [D7H], the protein stability index rises from 2.3 to 2.88.

First: TSECPSGKDKSPESHKAKNESWIK [D7G]
Second: TSECPSRKDKSPESHKAKNESWIK [D7R]
The protein stability index of the first is higher: 3.38 for the first, 2.35 for the second.

First: TSECPSDKDASPESHKAKNESWIK [K10A]
Second: TSECPSDKDRSPESHKAKNESWIK [K10R]
The protein stability index of the first is higher: 3.64 for the first, 2.81 for the second.

Going from TSECPSDKDSSPESHKAKNESWIK [K10S] to TSECPSDKDYSPESHKAKNESWIK [K10Y], the protein stability index falls from 3.41 to 2.94.

First: TSECPSDKDGSPESHKAKNESWIK [K10G]
Second: TSECPSDKDMSPESHKAKNESWIK [K10M]
The protein stability index of the first is lower: 2.63 for the first, 3.63 for the second.

Going from TSECPSDKDESPESHKAKNESWIK [K10E] to TSECPSDKDDSPESHKAKNESWIK [K10D], the protein stability index rises from 4 to 4.02.

Going from TSECPSDKDTSPESHKAKNESWIK [K10T] to TSECPSDKDPSPESHKAKNESWIK [K10P], the protein stability index rises from 3.04 to 3.3.

First: TSECPSDKDCSPESHKAKNESWIK [K10C]
Second: TSECPSDKDKSPESHKAKNESYIK [W22Y]
The protein stability index of the first is lower: 3.95 for the first, 5.23 for the second.

Going from TSECPSDKDKSPESHKAKNESMIK [W22M] to TSECPSDKDKSPESHKAKNESTIK [W22T], the protein stability index falls from 5.6 to 5.54.

Compared with TSECPSDKDKSPESHKAKNESFIK [W22F], TSECPSDKDKSPESHKAKNESPIK [W22P] is lower in protein stability index: 5.62 for the first, 5.54 for the second.

First: TSECPSDKDKSPESHKAKNESGIK [W22G]
Second: TSECPSDKDKSPESHKAKNESAIK [W22A]
The protein stability index of the first is higher: 5.58 for the first, 5.34 for the second.

Compared with TSECPSDKDKSPESHKAKNESLIK [W22L], FSECPSDKDKSPESHKAKNESWIK [T1F] is lower in protein stability index: 4.7 for the first, 3.08 for the second.

Going from NSECPSDKDKSPESHKAKNESWIK [T1N] to RSECPSDKDKSPESHKAKNESWIK [T1R], the protein stability index rises from 3.38 to 4.3.

First: LSECPSDKDKSPESHKAKNESWIK [T1L]
Second: TSECPSDKDKSPESHKAKIESWIK [N19I]
The protein stability index of the first is higher: 4.35 for the first, 4.02 for the second.

First: TSECPSDKDKSPESHKAKCESWIK [N19C]
Second: TSECPSDKDKSPESHKAKVESWIK [N19V]
The protein stability index of the first is higher: 3.63 for the first, 3.41 for the second.

Compared with TSECPSDKDKSPESHKAKLESWIK [N19L], TSECPSDKDKSPESHKAKEESWIK [N19E] is higher in protein stability index: 3.3 for the first, 4.23 for the second.

Compared with TSECPSDKDKSPESHKAKFESWIK [N19F], TSECPSDKDKSPESHKAKDESWIK [N19D] is higher in protein stability index: 2.87 for the first, 3.99 for the second.

First: TSECPSDKDKSPESHKEKNESWIK [A17E]
Second: TSECPSDKDKSPESHKIKNESWIK [A17I]
The protein stability index of the first is lower: 3.88 for the first, 4.17 for the second.

First: TSECPSDKDKSPESHKHKNESWIK [A17H]
Second: TSECPSDKDKSPESHKSKNESWIK [A17S]
The protein stability index of the first is lower: 3.29 for the first, 3.48 for the second.

First: TSECPYDKDKSPESHKAKNESWIK [S6Y]
Second: TSECPGDKDKSPESHKAKNESWIK [S6G]
The protein stability index of the first is lower: 2.82 for the first, 3.62 for the second.

First: TSECPEDKDKSPESHKAKNESWIK [S6E]
Second: TSECPKDKDKSPESHKAKNESWIK [S6K]
The protein stability index of the first is higher: 3.71 for the first, 2.95 for the second.

First: TSECPNDKDKSPESHKAKNESWIK [S6N]
Second: TSECPIDKDKSPESHKAKNESWIK [S6I]
The protein stability index of the first is higher: 3.76 for the first, 3.35 for the second.

First: TSECTSDKDKSPESHKAKNESWIK [P5T]
Second: TSECCSDKDKSPESHKAKNESWIK [P5C]
The protein stability index of the first is higher: 2.9 for the first, 2.8 for the second.

Going from TSECASDKDKSPESHKAKNESWIK [P5A] to TSECQSDKDKSPESHKAKNESWIK [P5Q], the protein stability index falls from 3.72 to 3.32.

Going from TSECRSDKDKSPESHKAKNESWIK [P5R] to TSECLSDKDKSPESHKAKNESWIK [P5L], the protein stability index falls from 3.45 to 3.33.

Compared with TSECSSDKDKSPESHKAKNESWIK [P5S], TSECNSDKDKSPESHKAKNESWIK [P5N] is higher in protein stability index: 3 for the first, 3.94 for the second.

Going from TSECKSDKDKSPESHKAKNESWIK [P5K] to TSECPSDKDKSPESHKAKNNSWIK [E20N], the protein stability index rises from 3.24 to 4.69.

First: TSECPSDKDKSPESHKAKNFSWIK [E20F]
Second: TSECPSDKDKSPESHKAKNLSWIK [E20L]
The protein stability index of the first is higher: 4.74 for the first, 4.56 for the second.

First: TSECPSDKDKSPESHKAKNQSWIK [E20Q]
Second: TSECPSDKDKSPESHKAKNTSWIK [E20T]
The protein stability index of the first is lower: 4.13 for the first, 4.39 for the second.

First: TSECPSDKDKSPESHKAKNYSWIK [E20Y]
Second: TSECPSDKDKSPESHKAKNKSWIK [E20K]
The protein stability index of the first is lower: 4.2 for the first, 4.37 for the second.

First: TSECPSDKDKSPESHKAKNASWIK [E20A]
Second: TSECPSDKDKSPESHKAKNESWIP [K24P]
The protein stability index of the first is higher: 5.18 for the first, 4.73 for the second.

Going from TSECPSDKDKSPESHKAKNESWIL [K24L] to TSECPSDKDKSPESHKAKNESWIV [K24V], the protein stability index rises from 2.66 to 2.96.

For TSECPSDKDKSPESHKAKNESWII [K24I], the protein stability index was 2.69.

Variants of: B2
Assay: as above
Details: c terminus: a fixed tail appended

First: FCDMDKSLLYLLCSNSQEHGAHKH [C10Y]
Second: FCDMDKSLLCLLCSNSQEHGAHMH [K23M]
The protein stability index of the first is higher: 2.65 for the first, 1.91 for the second.

First: FCDMDKSLLCLLCSNSQAHGAHKH [E18A]
Second: FCDMDKSLLCLLCSNSQEHGAHKQ [H24Q]
The protein stability index of the first is lower: 2.12 for the first, 2.22 for the second.

Going from FCDMDKSLLCLLCSNFQEHGAHKH [S16F] to FCEMDKSLLCLLCSNSQEHGAHKH [D3E], the protein stability index falls from 2.13 to 2.09.

First: FCNMDKSLLCLLCSNSQEHGAHKH [D3N]
Second: FCDMDKSLLCLLCSNSQEHGWHKH [A21W]
The protein stability index of the first is higher: 1.75 for the first, 1.54 for the second.

Work on YCDMDKSLLCLLCSNSQEHGAHKH [F1Y] yielded a protein stability index of 1.88.
